Measured values reported in doi:10.1101/2025.02.22.639629 (bioRxiv, 2025).

Biological target: the molecule itself
Experiment: SEC-MALS

Row | Protein | stoichiometry N
1 | mature IL-37 (Lys53 N-terminus) (ligand, human, UniProt Q9NZH6 53-218, looked up) KNLNPKKFSIHDQDHKVLVLDSGNLIAVPDKNYIRPEIFFALASSLSSASAEKGSPILLGVSKGEFCLYCDKDKGQSHPSLQLKKEKLMKLAAQKESARRPFIFYRAQVGSWNMLESAAHPGWFICTSCNCNEPVGVTDKFENRKHIEFSFQPVCKAEMSPSEVSD | 2
2 | IL-37 R158A (ligand, human, UniProt Q9NZH6 53-218, looked up) KNLNPKKFSIHDQDHKVLVLDSGNLIAVPDKNYIRPEIFFALASSLSSASAEKGSPILLGVSKGEFCLYCDKDKGQSHPSLQLKKEKLMKLAAQKESARRPFIFYAAQVGSWNMLESAAHPGWFICTSCNCNEPVGVTDKFENRKHIEFSFQPVCKAEMSPSEVSD | 2
